In patent US20220235136A1, “METHODS AND COMPOSITIONS FOR TREATING A DISEASE OR DISORDER” (YALE UNIVERSITY, priority 2019, published 2022):

Molecular target: T1, CD93 (Homo sapiens, UniProt Q9NPY3)
T1 construct: expressed in transfected cells; host or cells: 293 cells (CD93+ 293)
T1 sequence (Q9NPY3 22-652): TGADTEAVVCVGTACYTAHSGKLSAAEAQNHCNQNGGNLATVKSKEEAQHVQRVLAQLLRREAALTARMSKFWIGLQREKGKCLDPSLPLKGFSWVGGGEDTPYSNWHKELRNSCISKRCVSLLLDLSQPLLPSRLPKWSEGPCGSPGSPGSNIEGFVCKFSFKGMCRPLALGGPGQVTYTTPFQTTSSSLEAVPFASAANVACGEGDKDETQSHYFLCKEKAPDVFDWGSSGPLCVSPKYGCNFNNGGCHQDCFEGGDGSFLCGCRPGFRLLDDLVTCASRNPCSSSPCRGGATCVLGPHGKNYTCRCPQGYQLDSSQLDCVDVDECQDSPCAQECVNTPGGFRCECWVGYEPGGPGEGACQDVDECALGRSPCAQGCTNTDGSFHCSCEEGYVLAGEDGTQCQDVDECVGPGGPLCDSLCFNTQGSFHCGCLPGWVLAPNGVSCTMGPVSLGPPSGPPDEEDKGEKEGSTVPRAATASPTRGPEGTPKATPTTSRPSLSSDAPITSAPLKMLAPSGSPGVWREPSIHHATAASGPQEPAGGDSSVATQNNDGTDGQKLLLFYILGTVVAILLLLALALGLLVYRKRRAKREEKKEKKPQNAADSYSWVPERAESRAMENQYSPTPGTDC
Experiment: binding of Ig fusion proteins to CD93 transfectant (flow cytometry)
Conditions: flow cytometry
Text: FIGS. 10A-10B show identification of the binding domain on IGFBP7 for CD93. Each extracellular domain for IGFBP7, including insulin binding (IB). Kazal, and Ig, was swapped with the corresponding domain on IGFBPL1 using PCR cloning and fused to a C-terminal Ig. These chimeric mutants were transiently expressed in HEK293T cells and supernatants were used to stain CD93 transfectant. FIG. 10A depicts whether multiple chimeric IGFBP7 mutants bind to CD93. FIG. 10B depicts various human genes containing IB-domain constructed onto an expression vector containing Fc-Tag. Constructs were transiently transduced into HEK293T cells to produce Fc tagged fusion proteins in the supernatant. Supernatant was used to stain CD93 transfectant by flow cytometry. Binding index represents the ratio of binding MFI of CD93 transfectant to control cells.
The IGFBP7-IGFBPL1 chimeras were generated by two-step PCR. […]
Cell surface and intercellular staining and analysis by flow cytometry were followed the protocol previously described (71). Dead cells were excluded with SYTOX® (Blue Dead Cell Stain Kit (Thermo Fisher Scientific). Flow cytometric analysis was conducted with a BD FACS Calibur or a BD LSRFortessa™ cell analyzer (BD Bioscience, Franklin Lakes, N.J. USA), and then data were analyzed by FlowJo software (Tree Star Inc.)

B1: IGFBPL1: a IGFBP-related protein that does not bind CD93 (protein, UniProt Q8WX77 26-278, looked up)
Insulin-like growth …: LGIRDVGGRRPKCGPCRPEGCPAPAPCPAPGISALDECGCCARCLGAEGASCGGRAGGRCGPGLVCASQAAGAAPEGTGLCVCAQRGTVCGSDGRSYPSVCALRLRARHTPRAHPGHLHKARDGPCEFAPVVVVPPRSVHNVTGAQVGLSCEVRAVPTPVITWRKVTKSPEGTQALEELPGDHVNIAVQVRGGPSDHEATAWILINPLRKEDEGVYQCHAANMVGEAESHSTVTVLDLSKYRSFHFPAPDDRM
binding to CD93 293 cells / CD93 transfectant: does not bind
